T1: GST-FAPP1 full length (four-phosphate-adaptor-protein-1) (human, UniProt Q9HB20 1-300)
T1 sequence (looked up): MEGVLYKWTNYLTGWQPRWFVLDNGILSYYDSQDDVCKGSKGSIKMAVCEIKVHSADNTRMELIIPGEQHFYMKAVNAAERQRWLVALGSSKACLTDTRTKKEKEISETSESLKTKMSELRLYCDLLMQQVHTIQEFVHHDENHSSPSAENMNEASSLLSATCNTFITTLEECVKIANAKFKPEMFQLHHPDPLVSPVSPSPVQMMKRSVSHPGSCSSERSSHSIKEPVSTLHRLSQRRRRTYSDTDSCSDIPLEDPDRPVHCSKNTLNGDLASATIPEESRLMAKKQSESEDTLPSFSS

B1: His-Sac1 residues 1–188 (domain or fragment, human, UniProt Q9NTJ5 1-188, looked up)
chain: MATAAYEQLKLHITPEKFYVEACDDGADDVLTIDRVSTEVTLAVKKDVPPSAVTRPIFGILGTIHLVAGNYLIVITKKIKVGEFFSHVVWKATDFDVLSYKKTMLHLTDIQLQDNKTFLAMLNHVLNVDGFYFSTTYDLTHTLQRLSNTSPEFQEMSLLERADQRFVWNGHLLRELSAQPEVHRFALP

Assays:
[1] = biological target: T1, GST-FAPP1 full length …; test: pull-down
His-Sac1 residues 1–188 = biological target: B1; test: pull-down

| binding result [1] | binding result (His-Sac1 residues 1–188) | Binder |
| --- | --- | --- |
| binds |  | B1 |
|  | binds | GST-FAPP1 residues 1–100 (domain or fragment, human, UniProt Q9HB20 1-100, looked up) MEGVLYKWTNYLTGWQPRWFVLDNGILSYYDSQDDVCKGSKGSIKMAVCEIKVHSADNTRMELIIPGEQHFYMKAVNAAERQRWLVALGSSKACLTDTRT |

Source: publication PMC6400556 (The Journal of Cell Biology, 2019)
